Measurements: a protein production outcome set (Wang et al. 2014)

Experiment: label from the status in PepcDB records

Sequence | protein production
MVRKQKRARLIYNPTSGQEIMKKNVAEVLDILESFGYETSAFQTTPRADSAKNEAARASQAGFDLVIAAGGDGTINEVVSGIAPLKRRPKVAIIPTGTTNDFARALKIPRGNPVEATKLIGKNQTIHMDIGRAYNDKYFINIAAAGSLTELTYSVPSQLKTMFGYLAYLVKGAELLPRVRNVPVKVFYDHGVFEGEASMIFVALTNSVGGFETIAPDAKLDDGKFTLILVKTANLFELTDLIRLVLTGGRHINHKKIEYIKTSYLKIIPQGNPPKRMMINLDGEYGGDAPIELRNLKNHIEFFANTDEISDDAITLDTEELVLEAIAQKFAREAESLDEMDKTKEQD | not failed
MVRRCETQRGRWDNKVNILKDTDKFGFDLGFQLQESKKRFGPDLGFCIKRFAPPILQMSLEENENGPKPTWQIRSNRETSKAIRSAPPLTFSSFTGVSLGRKLPNNKNPESSKTRQEGFDTVEEGLKGDRGRTSVDRSEYDGG | failed
MVRSCAPHKRKAGRRARLAFGALASHGARENTEVPMRYVLILLLALFGYLLFWPIPVAPVAYHPPETPGFTGDFAENRVLDRAEFVTLPDGEIGPEDLAVMPDGTVYTTSLAGNLYRIDGAVPQLVDRLGGRPLGLKAGPDGALYIADSFRGILRWTAPGEVETVVDQIDGAPVIYANQLDLGRDGTIYFSNSTDRFDPRTLGGTKPTSVMTVWEQSDTGYVARRTPDGRVEKIATGFVYTNGVALSPDEDFLLINETGRARVHRLWLTGDKAGQSEVFLDNLPGYPDNIEAQGDGTYWLAFASPRVPAEALMPYPFLRKVVWRLGPKVRPAPIHRGMLIQFDGTGRILRTVQDPDGRLGITTGGKQVGARFYVMTLDSPGFARMDSADLR | failed
MVRTRLFGTFPHLSRSAQAQRNMTTTYANADPGELEKFSELAHRWWDPNSEFKPLHEINPLRLDWIQSTAPLAGKRVVDVGCGGGILSESMARAGANVKGIDLSRKALRVADLHSLEAGVAVDYEEIAAEALAAREPGSFDVVTCMEMLEHVPDPASVVRACATLVKPGGHVFFSTIHRNAKAYLLAVIGAEYVLNMLPRGTHDYAKFIRPSELAGFARTAGLEPAQLRGLEYNPLTGRYALTHDTSVNYLIATRRPDAP | failed
MVRVDQNLFNEVMYLLDELSQDITVPKNVRKVAQDSKAKLSQENESLDLRCATVLSMLDEMANDPNVPAHGRTDLYTIISKLEALS | not failed
MVSDAALHGKLAVEHASDHLVVLAQADSGPITVDQFKEKLKEVQQEEQLGWLTAIGKYFIGIFQKGGEVFAGFVTGIIPTLVVLMTAFYAVTELVGEERVHGLARGAGRIALTRYTLLPLLAVFFLTNPMAYTFGSFLEEKHKPAFYDAAVSYVHPPLGLFPHINPGEYFVWGGILVALLELEKKGVVVAGYHVKVAIWYAIVGLVVILLKGMLTERITTIMARRQGVEL | failed
MVSEMLSEAGHSVSYLKGGMKAWSEHLEPVKVGDLKDGGEMYQFVRIGKGCLSYMVISNGEAAIIDATRMVNFFIDFAKGKGATITHVFDTHLHADHISGGRVIAEKTKATYWLPPKDAEEVEFDYQPLEEGNDIIIGNTTIKIQPIYSPGHTIGSTSFIVDDQYLLSGDILFIDSIGRPDLAGMAEDWVGDLRKTLYSRYKALSKDLIVLPAHFMIIDELNENGSVGKQLSTLFSENHGLNIADETEFRHLVTDHLPPQPNAYQEIRETNMGKISPDEEKQREMEIGPNRCAIRLEHHHHHH | failed
MVSFDHATLGYITFVLMNFSMLSGAFIFLSKKKQHWIKVHLLVSILTYIFMVWTIWVVR | failed
MVSLLLISLLYLGIMLIAAKISEEIFRRIGLVTFVGPILMGILLGNGVFGVIQINEIISFITSLGIVFLLFLAGAEEFNVENRPNANVFLAVILESIIPFSVILVAIYIIGFKNYLILIVPLAMSSAGPLSRMLMDVKISDNRISNLIFQQVILIEIIFVILFAILLKTSEILITIIEIFLVFAFTIMFGRTLAKILEKIEYYFKAREIEFASLIAIILIIGYLAELYKFNSAISAFFLGILLKDYLKDRPELLERLHAFTYGFFEPLFFLGIGLYVTKINASIILFSLLFFSLIIASKFLAGFISSKILNIKGKINGFATSVKGGVDSSLLLTGLTLGYINEFMYSFSILAISLSALIVPLLFQINFKISNKISESKKVKLSQEVIKLQIKPLYASCEENLRSVISKISERGVRGIVVVNYENKPLGYVSIQTLLEIDPELYESTKACEVPLDEVPIEYDNVKVIDLLRKFRETEKPVIAIINKEGVLVTTVYERELARFLISF | failed
MVSSLSVYYRKLAYHVIESDGFLWVGFKPGMVHFIAKEVWNIRPLTRTDVERYYEEFTVLTQGKGSLYFRIVAHGGFLKEALAYELHGLTVSDDNYLRSLNSGRHVELYPHNEKAYRAIIKGFEQHRIGTVVQATGTGKSYLLARYISDHATERICVFAPNVTILEEIKKAVGFTSPYICYRTFQSLIYYRKNDKQLKADHILIDEFHHFGAEIWGAALQEVIESNPQAYILGTSATPIRPEGMIDTVDLYFEGNLFYELTLPQAWYYRILPVPILVQSAYGLDGELNRLQKRLDRSGCSIRRKEQVQKKLDVARVDFKGALGAPEVIRKFLPKDVCKLLVFCRDLTDLKQMVPEVCGWLTQAGRVIIPFEIHHTQSERINNQILKAFQKESGKLHVLFSVNMLIEGLHVEGIDAVLFLRRTESYIVTLQQLGRCLDAGSGKQPVVLDFVNNLSGKSVYDMMALHMERLACQPSPKGFEGVTSFLTTGFLSDIRLRIEEILTELEPWQIMYERLIEFRKKENDWPSVTEGKLGLWCNTQRMAYKRGRLSEERYKLLESVGFEWNLLDSNWMKEFQSLKVFFATQGRWPKREDGALATWCYTQRERRKKGRLSKERIRVLDEIGFVWSQDLNGEWMKNYEALKIFLDKQQRFPKSAEGYLGEWCSTQRKMRKQGKLSPDRQTLLDRIGFVWSVEQVWRSHLEQLHQFHVQNGRWPGCREGALGRWCTVQRRNYRRGSLSDQKIVQLEQIGFIPLKGDE | failed
MVSSSLSLTTLAGGTLLLKGSPSTLFYKHGRTLFIVDPGHGRKRAKQISKAAEKLGGEAVAIITHFHSDHLSTLYQGFQPSTALAPVKDLAMVQDRVMRLHYTFGYPFTGAEDYLLFKAEDVDNVEPLEAERIKPLRLVPLPGHTPGQTGVETPDGVLYAADSIFGERVLQTYAVPYHSNPCQALETLTRLRDRVNRLEVIVPSHGKPVKGEEAERLLEMNIERLEDAWTALTEELSRAPASVGLLASTLMKRYGAEATPTLAILVETAVRGYIGCHGAELEPILESGVVKWRVRRR | failed
MVSTLGSDTFTSISAHDLHGKLGNIHLIDVRENDDFKEGHIPTSRNIPMDILLKEPEKYINKTDEYYIVCQAGVKSEKTCKELWSKGYKVINIKDGTDSYKQPLEHHHHHH | failed
MVSTVRTVLGDVLPEHLGVCDAHDHLFFGSPQLPGQELRDASAARAELAAFREQGGGSVVQWTPYGLGRRAADLPLLSRDTGVHVVAATGLHQAVHYDAGTLAELRGRLADTFVAELTTGIGPSGVRAGLIKVAGGFHALDAHARWTMTAAAEAHHATGAPIAVHLELGTGALDVLDLLCGESGVPPHRVILGHLNRSPDFTVHRQAAEAGAFLAFDGPSRANHATDWRMPDALRALAEAGFGHRLLLGGDTTTAAARSVNGGPGLPYLLRRLRPRLEQALGKDLVGRIFTENPGRAFGVEWR | failed
MVSVGGDSVADSTVNQAKQSIRRSESITMERIVSFTLEEVPESIAKLEDKLFSYLLDLEGLASGRQRQTMSGEVGFGVLKAIDDQTIQDRLHW | failed
MVSVSVVIATLKPRDEIEAIQCLEDQTFDDFEVIVCDKSPVTRARNEGIRQSSSDKIVFLDDDSRPQPGYLEKANDVLETEAAYAGRTIHPVDDVFARHFTAHYDWGGDPCYVDHFWGCNMGVHRDVFKTVGGWDEEMGWGHEEKELARRVRSEFDIRYDPELVVDHPYASSITDYWKKQYKLETKSPYYWSKCNVSRADQLKNIFCETFDPLNYVRITPVATMIEAGSTVAKTAGRLRGFLDHTHHEEGRGGVPDIDRPSQSPERSGLEHHHHHH | failed
MVSWHPSVYLAQRTSKAAKNILAAPPLILSISFIFLILIGTLILKLPISTTVPVTWSQSLFNATSAVTVTGLVVFDVGTVYTTFGQVVIALLIQLGGLGIMTFAIVTLLALGAKIGFLQNTIAKEAYNSTNTATLVTTAKSVLIFSLCVELIGMIILAVSWSDELGWRTSLFHGFFYTISAFNNAGIGLSPDSLMPYVEDPIINLTITALFIIGGLGFTVWIDLWRKKRWDKLTTYSKMMIIGTISINAIAVLAIYCIEYNNPKTLVPLSETGKWLASWFQAVTPRTAGFNTLAMNELEDATTAIMLMLMFIGGGSLSTASGIKVVTFMVLILATYGYLRRYDFVYVYHRGISKDTISKALALAMISVGTIWASIFFLLLSENASMIDIIFEAVSAFGTVGLSRGLTSNLTVTGQFIIIFLMFMGRLGPLTLAYFLASPKSKRIRYPETKLTIG | failed
MVSYKILSVANKLKNIRDKYGLSQEDLAGNEITRNLISQIEHNKANLTRSAAEIMLKNLKKICDKKNVQVDEDINYLMEDEKSQAIKVLDKYIDDLRDLTIYKDNVFINKLREVEDFLVTWDFRDKKITIFELAGDYFSSTNDFYNASLYYEKAKALIDINIYSDNIVHILRKLSMTYYYMLRYQDDINCCEFALKQFKNMDEEYRCIFLFNSSLCYGQLKKYDLALKRLNEVESIIKNIDQNKYYEVLIQKAICYQWMKEYQKSLDIYNKLLESIDKSDYEKYLFILVNSSDIYVENSNFEKAESNLRIILENINNLNESSTLLPSTYLEMSRILKKLGYTKDAELYCLKSLNYAKRNTHYYLVNDIYGELLDIYKTLNVPEKVQTIKDEFFSNSSRDKNLNSKLMFKLLDFYFATNDIHSIKEIYDFSKNFIQERMINLCY | failed
MVTDKSKKAKTEEENVEQIDAELVLSIEKLQEIQDDLEKINEKASDEVLEVEQKYNVIRKPVYDKRNEIIKTIPDFWLTAFLSHPALGELLTEEDQKIFKYLSSLDVEDAKDVKSGYSITFSFNPNPFFEDGKLTKTFTFLEEGTTKITATPIKWKEGKGLANGVNHEKNGNKRALPEESFFTWFSDAQHKEDVEDEMQDEVADIIKEDLWPNPLTYFNNDADEEDFDGDDDGDEEEKEGDSDEDDDEEDEVGEE | failed
MVTGYEALERHRGVRRPRRKLSRREKHAWKKAQKYELKLHKAHEKEERKLAKQAAKQAAREEKAAQKQAKKAERHKKKTKPPGSVKSSGKKGVAKKISSTNKDSRNKGKNITAQQSIPYREMGKDGICRVEDGYYSKTIRFYDINYQLAQNEDKNAIFENWCDFLNYFDSTIHFQLSFINHHSNMTEYEDVIRIKKQNDSFDDLRMEFAQMLRNQLAKGNNGLIRTKYITFGIEADNIREAKPKLERIETDILNNFKVFGVSAYPLNGAERLQIMYETFNQNVKVPFRFSYDDMLRTGLNTKDYIAPSSFLFKNGKDFQMGDTVGAVSYLQILAPELTDKMLAEFLEMDCNLLVNLHIQSIDQMKAIKLVKSKVTDINRMKIEEQKKAVRSGYDMDIIPSDLNTYGGEAKRLLEDLQSRNERMFLVTVVFLNTAKNKQELENVVFQTAGIAQKYNCALKRLDYQQEQGLMSSLPLGRNWIPIKRALTTTSTAIFVPFTTQELFMGGESIYYGLNALSNNLIMADRKKLKNPNGLILGTPGSGKSFAAKREITNVFIVTKDDIIICDPEGEYFPLVRAFNGQVIRISPTSHDYINPMDININYADDDDPLSLKSDFILSLCELVVGGKNGLEPVEKTIIDRCVRLVYQDYLADPVPEKMPILEDLYNLLRKQEEAESQRLATALEIYVNGSLKVFNHRTNVELNNRLVCFDIKDLGKQLKKLGMLIVQDQVWNRVTVNRSAHKSTRYYIDEFHLLLKEEQTAAYSVEIWKRFRKWGGIPTGITQNVKDLLASREIENIFENSDFILMLNQASGDRQILAKQLNISTHQLSYVTNSGEGEGLIFYGNTIIPFKDRFDNTLMLYALMSSKPEDVEKREKLGIKGRDDS | failed
